Source: the DeepSol protein solubility set

Assay: soluble on expression in E. coli; label from the status in PepcDB or PDB records

Sequence	soluble on expression in E. coli
MGSDKIHHHHHHMDIRSLKMYLHLCDSLHFAKTAEQSHVSPSTLSRALQRLEDEVGSKLFDRDNRSVTITHAGVEFKRFAEQTLSEWTQLRSRIDPSQQFLRGNLNLYCSVTAAYSHLPALLDRFRREHPHVDINLNTGDPANAVNQIQKNRADIAIIALPEAFPSSLHFTPIDKVPISVIAPTIQCQVQQWVSQAKIDWAKLPYIVPDHGPGRKRIDLWFKQMGIKPNIYAQVSGQEAIVSMVALGCGVGISPEAVIHNSPVRDRIQTLASPIPIPPFELGCCCKEKRTNDPIIRAFLDII	not soluble
SLSAALRTLKHVLYYSRQCLMVSRNLGSVGYDPNEKTFDKILVANRGEIACRVIRTCKKMGIKTVAIHSDVDASSVHVKMADEAVCVGPAPTSKSYLNMDAIMEAIKKTRAQAVHPGYGFLSENKEFARCLAAEDVVFIGPDTHAIQAMGDKIESKLLAKKAEVNTIPGFDGVVKDAEEAVRIAREIGYPVMIKASAGGGGKGMRIAWDDEETRDGFRLSSQEAASSFGDDRLLIEKFIDNPRHIEIQVLGDKHGNALWLNERECSIQRRNQKVVEEAPSIFLDAETRRAMGEQAVALARAVKYSSAGTVEFLVDSKKNFYFLEMNTRLQVEHPVTECITGLDLVQEMIRVAKGYPLRHKQADIRINGWAVECRVYAEDPYKSFGLPSIGRLSQYQEPLHLPGVRVDSGIQPGSDISIYYDPMISKLITYGSDRTEALKRMADALDNYVIRGVTHNIALLREVIINSRFVKGDISTKFLSDVYPDGFKGHMLTKSEKNQLLAIASSLFVAFQLRAQHFQENSRMPVIKPDIANWELSVKLHDKVHTVVASNNGSVFSVEVDGSKLNVTSTWNLASPLLSVSVDGTQRTVQCLSREAGGNMSIQFLGTVYKVNILTRLAAELNKFMLEKVTEDTSSVLRSPMPGVVVAVSVKPGDAVAEGQEICVIEAMKMQNSMTAGKTGTVKSVHCQAGDTVGEGDLLVELE	soluble
MGSDKIHHHHHHMNIETLMIKNPPILSKEDRLGSAFKKINEGGIGRIIVANEKIEGLLTTRDLLSTVESYCKDSCSQGDLYHISTTPIIDYMTPNPVTVYNTSDEFTAINIMVTRNFGSLPVVDINDKPVGIVTEREFLLLYKDLDEIFPVKVFMSTKVQTIYKEVRLDQAVKLMLRRGFRRLPVIDDDNKVVGIVTVVNAIKQLAKAVDKLDPDYFYGKVVKDVMVTNLVTIDELASVNRAAAEMIVKRIGSLLILNKDNTIRGIITERDLLIALHHILVMEKFKEKL	not soluble
MQTPKPTLELLTCDAAYRENPTALFHQVCGDRPATLLLESADIDSKDDLKSLLLVDSALRITALGDTVTIQALSDNGASLLPLLDTALPAGVENDVLPAGRVLRFPPVSPLLDENARLCSLSVFDAFRLLQGVVNIPTQEREAMFFGGLFAYDLVAGFEALPHLEAGNNCPDYCFYLAETLMVIDHQKKSTRIQASLFTASDREKQRLNARLAYLSQQLTQPAPPLPVTPVPDMRCECNQSDDAFGAVVRQLQKAIRAGEIFQVVPSRRFSLPCPSPLAAYYVLKKSNPSPYMFFMQDNDFTLFGASPESSLKYDAASRQIEIYPIAGTRPRGRRADGTLDRDLDSRIELDMRTDHKELSEHLMLVDLARNDLARICTPGSRYVADLTKVDRYSYVMHLVSRVVGELRHDLDALHAYRACMNMGTLSGAPKVRAMQLIADAEGQRRGSYGGAVGYFTAHGDLDTCIVIRSALVENGIATVQAGAGIVLDSVPQSEADETRNKARAVLRAIATAHHAQETF	soluble
LSCLTPDNKPGKCVNIKKCTHLAEIEEDPIGEDETTYLKNSVCAGPEDNSVCCG	soluble
MTTARDIMNAGVTCVGEHETLTAAAQYMREHDIGALPICGDDDRLHGMLTDRDIVIKGLAAGLDPNTATAGELARDSIYYVDANASIQEMLNVMEEHQVRRVPVISEHRLVGIVTEADIARHLPEHAIVQFVKAICSPMALAS	soluble
GPGSMLSRIKKQQAETRDAAGQSHSSGGGPSTASSEPVAILRLKKDLDNLDGIRSTIDIPDPQNMLRMKVTVRPPYPSIWQGGIFEFLLEFREDYPYEGPRVRYLGPYRIWHPNIEGDEYMEGEGGLRGDVKNTWGVCLSFQTEWKPTMSLRDIIIMIELLFQDPNPDDPLHGTAKQAAQMMKDNPAKFRDKARRWMRGGYIE	soluble
MTIAVSPQALPALVLNADYRPLSYYPLSLWSWQDAIKAVFLDRVNIIAEYDHAVSSPSFSMRLPSVVSLKTYVQPIRNPAFTRFNVFLRDKFECQYCGTRDELTFDHVIPRAHGGETTWHNVVAACSPCNLRKGSKLPKQAGMFPAQKPFQPTVQDLHNNGRLFPPNYLHESWMDYLYWDTELQPLEHHHHHH	not soluble
MGSDKIHHHHHHMMDMLMSTPNYNASLLAMATAALNALDSSHAGAAHATEAQQSHFLCNWMAQALKDKSFDKAIAGELTLWVRQGRSMGSSAQLKRLLQTIRHQYSTLAEHTMGLGNALAKMLEDARQQDVIVYTDTPVKTKLKLDADGQSSIIVCADEYQQHIRDGELIKPISLFVRADEKFLAKLAFSHGLMLTQGDKKSSLIKHHKSYKLFPKNQLPSLALLTFH	not soluble
MEERTLVILGATGSIGTQTLDVLKKVKGIRLIGISFHSNLELAFKIVKEFNVKNVAITGDVEFEDSSINVWKGSHSIEEMLEALKPDITMVAVSGFSGLRAVLASLEHSKRVCLANKESLVCGGFLVKKKLKEKGTELIPVDSEHSAIFQVMEPEVEKVVLTASGGALRDWKISKIDRARPEDVLKHPVWNMGARITVDSATMVNKAFEVLEAMELFELPFEKIEVKIHREGLVHGAVVLPDGNVKMVVSPPDMRIPISYALFYPRRVALEPFFLRTISLSFEDPDPEKYPAFFLLKEIKDSYALRTAFNAADEVAVEAFLKGRIRFGGIHRVIEKTLEEFQGYPQPRTLDDVERIHFEAIKKAERVTEWLSSTSY	soluble
MQMLRNVHPVTEIQVSANMAEVRARVDFKVGAKSNIDAEILSFHGLQSDKEHVAVIFKSADTTQEAPLVRMHSECLTGDVFHSSRCDCGEQLEETITRMGQSGGIILYLRQEGRGIGLYNKIDAYRLQSQGMNTYEANNHLGFGDDLRDFTEAAQMLQALGVKKIRLVTNNPKKIRELQEHGIEIVEVVHTSAHIKDGNENYLKAKVSHGKHQLKL	not soluble
MGSDKIHHHHHHMSKIGLTTTVPVEVIYAAGDTPVDLNNIFISDTREAMLRIEEAELAGYPRNVCGWIKGLYATALKSPEIKKIVAVTQGDCSNTHALMETWSEEGIEIIPFAFPYDRDGDMLRLQLEKLITALGTTWDQVREQKVRLDQVRQLAWEIDRLTWQENQVRGFENHLHLVSCSDFNGDPEGFARDLEGFIAEAREREPLNLQFKGRKKRELRLGFMGVPPIMPDLYNFLEEHGARVVFNEVQRQFSMPFATEDIVEQYQLYTYPYNVFGRIEDVAQEAERRQLDGLIHYTQSFCYRQIEDLIVRRRLDYPILNLEGENPTGLDARSKMRLESFLQMLRD	not soluble
GDKAYTDAESYTKGLHKIYSVWALSGQDGSSSSDISGLDAGNTALLRCWWTLQEQPTDEMKNAWNDAWCTEVNYMTWTTNKVEPIEGVYQRCMYIVALVNEFLKNIPNAPESIDKESYIAQARFNRAFAYYVLMDMFALPPFITEKNYSIEPAPLSREDLFNWIEAELNEIKPNLPSPRSEYGVADQAVASALLARMYLNAEIYTGKARYTECINACNEVIKAGYQLADNYADLFKADNGENPDTKKEIIYPIIFDGDKTQSWGMAAIIIGARGAEDKDVLLAHSGVDQGWAGFRATSNLVHLFDFQNDEEPKASEIQDKRGIFYDKGRSIDITSSVSGTFETEGWSVFKFSNLNSNGQPGKNTLWVDTDFPMFRLGDIYLMYAEAVARGGEGSKASAVEYINALRKRAYGDDKHNISENWLEENNFRNLLDERGRELYWEGIRRTDLVRFDLLTSGSYTWDFKGGINTGVGVNKRYNVYPIPVTDLTVNGNLQQNEGY	soluble
MNDYSTTRDRVEHYFDRTATHTWERLTSSAPVSRIRQTVREGRDTMRAKMLWRLPKDLTGLRVLDAGCGAGQMTAELAARGAQVMAVDISPQLVEIARKRLPPEHQDRVTFASGDMLADDLGRFDYVVAMDSLIYYTDADIAAALDRLGARTRHSVVFTVAPRTPFLMAFWTMGKLFPRSDRSPVMIPHPFQPLNEATGGRLVKVGRVSRGFYISECLEFRPLEHHHHHH	not soluble
MGSSHHHHHHSSGRENLYFQGMTKSKNNPGRGNTIRESNTMKVMEEIREKIRKAIKEGVSLREIEEIILQEAMMEEREAYLEVEDDHKNGTYFRYLGTGDGVLRLRVPRTRKGGFRPKILPEKYERTSPDYEDFLQQLVLSGMTPSQVKAVLAAKGIPYSEIVMNRVAERISNKLKEYKSRELPHDLLALYIDVKIVKVRISESIMERAIYIAIGVDLEGNKFVLDYEVRDREDLDGWKSFLSGLVSRGVSRVDVIVSDDFSGLDRVVSTLFPSSQHQLCITHMVRNLMRVLPDKEKEELMIRVRDLKSSRNVEEGRKAILSLSQLVQPFSPARAKRLLDAADKYCSFLNFPREIRHYLYTNNTSESFNLTLARFEEELGGYFPSLRSLEVYLYVSIHESNSRWKFRPMSVIRHYSYHLKQLHASRFQVSLDEDF	soluble
MGSDKIHHHHHHMSEHLTLPTNKPQVTHFSSGPCAKHPGWSVSNLENACLGRSHRSEDGKAKLSEVIERSKQILGLPADYRLGIVPASDTGAVEMALWSLLGQRPLDILAWESFGQEWVKDVVDELKLPDVRLLKAPYGGLPNLDEVDFSHDVVFLWNGTTSGVRVPNGDWIKDDRQGLTICDATSAVFAMDIPWEKIDVLTYSWQKVLGGEAQHGVIVLSPRAVERLQTYEPAWPIPKIFRLSQKGKLIEGIFKGDTINTPSMLCVEDALDALIWAESVGGLPGLISRSEANLAAIAQWVKQSNWADFLAEKPETRSCTSICLKIVDAAFASLSAEDQGKFAKKLAKLLEKQQVAYDIAPYRAAPPGLRIWGGATVETADIEALLPWLDWAYANVKAEFVPVA	not soluble
MAAQQRDCGGAAQLAGPAAEADPLGRFTCPVCLEVYEKPVQVPCGHVFCSACLQECLKPKKPVCGVCRSALAPGVRAVELERQIESTETSCHGCRKNFFLSKIRSHVATCSKYQNYIMEGVKATIKDASLQPRNVPNRYTFPCPYCPEKNFDQEGLVEHCKLFHSTDTKSVVCPICASMPWGDPNYRSANFREHIQRRHRFSYDTFVDYDVDEEDMMNQVLQRSIIDQ	soluble
MSLLKISGKFFDEDNVDNLIVLRQSIKELADNGFRVGIVTGGGSTARRYIKLAREIGIGEAYLDLLGIWASRLNAYLVMFSLQDLAYMHVPQSLEEFIQDWSHGKVVVTGGFQPGQSTAAVAALVAEASSSKTLVVATNVDGVYEKDPRIYADVKLIPHLTTQDLRKILEGSQSVQAGTYELLDPLAIKIVERSKIRVIVMNYRKLNRIIDILKGEEVSSIIEPVEGHHHHHH	not soluble
MSSSGPTRSISTGTKPPTESLYKREVAQMMQQHQQQQRINNNKGYRPQGASPPKELKRRFYDDGSVTPSSRQSRNERSMDGRPSPEHGAIIGENRKSSPPAEEKYSNSGTRCKLPIPDMFRFYDKEMANEKLESLGLADEDDKKTLTKMRRHSIWMDNQLLNQLQASESNKQYLSAKKQMRDILITRIDHIDNAHKNVNSLFVHDFVHDYIILFKNKVSKSEKFLLCLKKINN	not soluble
MELIRFSISIPSKLLEKFDQIIEEIGYENRSEAIRDLIRDFIIRHEWEVGNEEVAGTITIVYNHDEGDVVKALLDLQHEYLDEIISSLHVHMDEHNCLEVIVVKGEAKKIKMIADKLLSLKGVKHGKLVMTSTGKELV	soluble
